Biological target: Thrombin (UniProt P00734+P00734)
Assay: EMSA
Conditions: 0.1 nM aptamer, thrombin 0.1-12.8 nM; more than half bound at 0.1 nM thrombin

Sequence: NTAGGDTGGGTAGGGTGGTNAGGGWTGATGYGTGGTAGGC [Bivalent aptamer AD]
- Kd: < 0.1 nM

— patent US11168320
